{
  "source": "the DeepSol protein solubility set",
  "data": [
    {"test": "soluble on expression in E. coli; label from the status in PepcDB or PDB records", "values": [
      {"sequence": "MGSDKIHHHHHHMRERTVDYSFCGMVRSRERLARQIVFHHIPKTAGSSFNQILRTLYRDDEVCDAALDDELDEVMADETRRYELFVGHFSFDALHRHFGGATRLTFLRDPVQRCISQYHNWHDASRYSDAWIGRSDTNPDVIKALKMTSEMSLCEFVSSDNLVISDSAQNMMTRYLAPSVEWKKERGYYDAELVEKAKRNLVEYFHFFGLTEQFDRSLVLLAHTLGIRPWERSDALLTNRNPKKASFDSVYNTTPEEGGVLRDYNLMDIELYEFAVKEFNRRFDAGYQKLVECAFEYLADKDTRDMGNAGDFYAFDMTNAVGARGLHFLESTRLPCGADVLGRWTGLEPRAVWEIPLRAGRDSHVVIEVDYIDSVSPEALAPEHFTLNGMPARQHAFSAEGSIQRLRLVFSAGAALAGRMLHTLKLTTPLVRAEDGTRDVGVLLLRLQSYSV", "soluble on expression in E. coli": "not soluble"},
      {"sequence": "SEQSSPGFRQTHLQDLSEATQDVKEENHYLTPRSVLLELDNIIASSDSGESIETDGPDQVSGRIECHYEPMESYFFKETSHESVDSSKEEPQTLPETQDGDLHLQEQGSGIDWCLSPADVEAQTTNDQKGSASLTVVQLSILINNIPDESQVEKLNVFLSPPDVINYLALTEATGRICVSQWEGPRRLGCIFCHGDHLLAVNDLKPQSLEEVSLFLTRSIQKEKLKLTIGRIPNSETFHAASCMCPSKCQSAAPSQLDKPRLNRAPKRSPAIKKSQQKGARE", "soluble on expression in E. coli": "soluble"},
      {"sequence": "MAEIDYKKVTGMIHSTESFGSVDGPGIRFIIFMQGCKMRCQYCHNPDTWEMETNNSKERTVEDVLKEALRYKHFWGKDGGITVSGGEAMLQIDFITALFIEAKKLGIHTTLDTCGFAYRATPEYHAILEKLLDVTDLVLLDLKEIDSEQHKIVTRQSNKNILQFARYLSDRGTPVWIRHVLVPGLTDIDDHLKRLGEFVQTLDNVDKFEVLPYHTMGEFKWRELGIPYPLAGVKPPTPERVKNAKDIMKTESYTEYLKRIQN", "soluble on expression in E. coli": "soluble"},
      {"sequence": "MSLKQLVVKIETDNGIIGWGEAQSPVSPNTTATIIKDIVEPLTIGKDIYDVESIWHNNYSAKRERGHYTGFYIDAICGVDIAIWDAIGKSLKMPTCKAMGGAHRKSVALYNGIGGTEPEEVADQAEWSVSKGYKFVKMHLKETLEKDIEIARKVRERVGDSIGIMIDVHMGFDTFNVTKLGKELEKLNLLWLESPSDPTDIPGLCEISRSLDIPIANGEWTRTKYEMREIFEKRAYDISMPDIARTGLTGGKQIASIAQLYNIPIAPHVGGGGIVSVASTLQFSLNTPNFLIMEHSEQGHAVKAMILSESFDAENGQYSLPNKPGLGIDVDENKLEKYKINPSEGHHHHHH", "soluble on expression in E. coli": "soluble"},
      {"sequence": "MTDQATPNLPSRDFDSTAAFYERLGFGIVFRDAGWMILQRGDLMLEFFAHPGLDPLASWFSCCLRLDDLAEFYRQCKSVGIQETSSGYPRIHAPELQGWGGTMAALVDPDGTLLRLIQNELLAGIS", "soluble on expression in E. coli": "soluble"},
      {"sequence": "MTDSRTHLRLQIRQRRQSLSAFEQQTASQQLIHTFASLPEVTAAQRIALYLANDGELNTQPLIEWLWQQGKQVYLPVLHPFAKGHLLFLHYHTHTPMNKNRYGIAEPKLDQRLICPVRELDIIGTPLVAFDQSGQRLGMGGGYYDRTLAPWFKTQQGAMPIGLAHDCQQVEQLPTASWDIPLRKIVTPSKVWQWLEHHHHHH", "soluble on expression in E. coli": "not soluble"},
      {"sequence": "SREPVDILREQKINAEWALKQQSDKLAAQFDNMDDAYLRERKQDMLQVVRRIHNNLIGQGNELEVADNLFDETVLIANDLSPADTVLFKEQR", "soluble on expression in E. coli": "not soluble"},
      {"sequence": "EIGLLLAILLFMKRVTENTRITVATGRLDLTQTGEIAHHDEVLDIPKGVEVYEIEGPFFFGIANRFEEIMNTLGDHPDVRIIRMRHVPFMDSTGMHNLENLIKMSRKEGVSIVLSGVRKDVHEELATAGIVELLGEENVCADIQAALRQAQAIAQGA", "soluble on expression in E. coli": "not soluble"},
      {"sequence": "MSLKQTNPFVYSNDNKRYHTWNYCLREEFGQKTYKVALDGGFDCPNRDGTVAHGGCTFCSAAGSGDFAGNRALDLKIQFQQVRDKMQTKWKDGKCIAYFQAFTNTHAPVAELREKFETVLNEPGVVGLSIATRPDCLPDDVVEYLAELNERTYLWLELGLQSAHDETGRLINRAHDYDCYVEGVRKLQKHNIRICTHIINGLPKETPEMMMETTRKVVESGVDGIKIHLLHLLKGTPMVEDYKKGDLEFLTRDGYVNLVADQLEILPPEMVIHRITGDGGVDDLIGPVWSLNKFEVLNAIDAELVRRDSWQGKLYQPVEVNAKEGHHHHHH", "soluble on expression in E. coli": "soluble"},
      {"sequence": "MCIGVPGQIRAIDGNQAKVDVCGIQRDVDLTLVGSCDENGQPRLGQWVLVHVGFAMSVINEAEARDTLDALQNMFDVEPDVGALLYGEER", "soluble on expression in E. coli": "not soluble"},
      {"sequence": "MKTTYNRWWKKKVWFGRKDMSYKVIVDSCGEFTPEMKADGGFEHVALGIQIEDTQWTDDDSLKQEELLLKIAESTSCAKTSCPSPERYMESYHCDAERIYVVTLSAELSGSYNSAVLGKNLYEEEYGEKQIHVFNSRSASVGETLIALKVQQCEKAGMTFEEVVESVECYIEEQHTYFVLENLDTLRKNGRLTGIKSLVAGALNIKPIMGSTPQGTICQKEKARGMKKALVKMADCVAADVVNAGDKILAIAHCNCEERAKEVQRLLKERFAVKSSFIVDTSGISTVYANDGGIIVVV", "soluble on expression in E. coli": "soluble"},
      {"sequence": "MSAVMATYLLHDETDIRKKAEGIALGLTIGTWTDLPALEQEQLRKHKGEVVAIEELGESERVNAYFGKRLKRAIVKIAYPTVNFSADLPALLVTTFGKLSLDGEVRLLDLEFPDEWKRQFPGPRFGIDGIRDRVGVHNRPLLMSIFKGMIGRDLAYLTSELKKQALGGVDLVKDDEILFDSELLPFEKRITEGKAALQEVYEQTGKRTLYAVNLTGKTFALKDKAKRAAELGADVLLFNVFAYGLDVLQALREDEEIAVPIMAHPAFSGAVTPSEFYGVAPSLWLGKLLRLAGADFVLFPSPYGSVALEREQALGIARALTDDQEPFARAFPVPSAGIHPGLVPLIIRDFGLDTIVNAGGGIHGHPDGAIGGGRAFRAAIDAVLAGRPLRAAAAENEALQKAIDRWGVVEVEA", "soluble on expression in E. coli": "soluble"},
      {"sequence": "MGSDKIHHHHHHMALTQITQTVSPQPTPPELRKYDYDLVIVGGGIVGLTLASALKDSGLNILLIEAKVSSAAVAKGQAYAVHLLSALIYQGIGIWDKILPQIAKYRQVRLSDADYPGVVEFETTDLGTPELGYVAEHQALLEPLQEFVQNCPNVTYLCPAEVVSTNYQQNEVVIAVKIADQLNTIRSKLLVAADGSRSPIRQAAGIKTHGWKYWQSCIVAFVKPEKPHNDTAYERFWPSGPFAILPLPGNRCRIVWTAPHDEAKALCALNDEEFLQELSQRFGKQMGKLELLGDRFVFQVQLMQSDRYVLPRLALVGDAAHNCHPVGGQGLNLGIRDVAALAQVIQKAHQAGEDIGNIRVLKRYESWRQKENLAILGFTDMLDRMFSNQFPPLVFVRRLGLWFLQSVPALKTFMLKLMIGLKGKTPELAKR", "soluble on expression in E. coli": "not soluble"},
      {"sequence": "MSLDKRLFLDPDTAIERLQRLQQALEMGVSSLMALVTTDWRCYGYMERHINEIRTAVDKVELFLKEYLHFVKGAVANAACLPELILHNKMKRELQRVEDSHQILSQTSHDLNECSWSLNILAINKPQNKCDDLDRFVMVAKTVPDDAKQLTTTINTNAEALFRPGPGSLHLKNGPESIMNSTEYPHGGSQGQLLHPGDHKAQAHNKALPPGLSKEQAPDCSSSDGSERSWMDDYDYVHLQGKEEFERQQKELLEKENIMKQNKMQLEHHQLSQFQLLEQEITKPVENDISKWKPSQSLPTTNSGVSAQDRQLLCFYYDQCETHFISLLNAIDALFSCVSSAQPPRIFVAHSKFVILSAHKLVFIGDTLTRQVTAQDIRNKVMNSSNQLCEQLKTIVMATKMAALHYPSTTALQEMVHQVTDLSRNAQLFKRSLLEMATEGHHHHHH", "soluble on expression in E. coli": "soluble"},
      {"sequence": "MGHHHHHHSHRLSPRDEYKPLDLSDSTLSYTETEATNSLITAPGEFSDASMSPDATKPSHWCSVAYWEHRTRVGRLYAVYDQAVSIFYDLPQGSGFCLGQLNLEQRSESVRRTRSKIGFGILLSKEPDGVWAYNRGEHPIFVNSPTLDAPGGRALVVRKVPPGYSIKVFDFERSGLQHAPEPDAADGPYDPNSVRISFAKGWGPCYSRQFITSCPCWLEILLNNPR", "soluble on expression in E. coli": "soluble"}
    ]}
  ]
}
